Assay results as given in PMC3989342.

Molecular target: F-actin (endogenous, detected with anti-beta-actin antibodies) (rat (endogenous in hippocampal neurons)) (UniProt P60711)
Assay: FRET or BRET; antibody-based acceptor-photobleaching FRET in fixed rat hippocampal neurons, single dendritic spine heads; anti-cofilin AE774 with Alexa 488 secondary (donor), anti-beta-actin AC15 with Alexa 555 secondary (acceptor); F-actin fixed, G-actin mostly extracted; control neurons, 2 min NMDA (nLTD), chronophin (CIN) overexpression

Substance “cofilin (endogenous cofilin/ADF of rat hippocampal neurons) (from UniProt P45592 1-166) (natural protein)” has a ratio of FRET in the presence versus the absence of nLTD, CIN-expressing neurons of 51%.
